Assay results: patent US6820011B2, “Three-dimensional structure of complement receptor type 2 and uses thereof” (The Regents of the University of Colorado, priority 2001, dated 2004)
Entries after “also recorded” stand apart in the source; their conditions may differ.

Molecular target: T1, CR2 (Homo sapiens, UniProt P20023, G20A)
T1 sequence (P20023 20-153 G20A): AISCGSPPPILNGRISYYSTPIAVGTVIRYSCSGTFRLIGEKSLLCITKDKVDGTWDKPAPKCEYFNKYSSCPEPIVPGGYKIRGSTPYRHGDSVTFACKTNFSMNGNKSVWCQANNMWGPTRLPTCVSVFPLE
Test: native gel shift assay of the binding between CR2 and C3d wild type or mutants
Settings: for interaction with CR2 (shift of C3d band to the complex form): 6% native polyacrylamide gel, same C3d concentration, increasing amount of CR2, compared with wild type C3d
Source text: Based on the complex structure, mutagenesis of C3d around the interface to disrupt CR2 binding was predicted to be difficult. This is because the interaction between CR2 and C3 d involves mostly main-chain H-bonding, and the side chain residues play relatively small roles in the binding. However, to confirm the accuracy of the CR2-C3d interaction seen in this co-crystal structure, two informative C3d mutants were constructed. In mutant 170 (mt170; SEQ ID NO:8), residue Asn170 was changed to Arg. Asn170 is located on H7 of C3d and is the only residue on C3d that more or less points directly toward CR2 in the interface (FIG. 3E). Asn170 also packs directly with Tyr81 of CR2 as well as forms an H-bond with CR2 (Lys100) through a water molecule (FIG. 3E).
Briefly, FIGS. 4A and 4B show a native gel shift assay of the binding between CR2 and C3d wild type (wt) or mutants (mt). […] The C3d band will be shifted to the upper part of the gel when it forms a complex with CR2. The C3d concentration (for both wt and mt) is the same throughout lanes 1-12. The CR2 added to each corresponding lanes for wt and mt C3d was also the same, e.g. same amount of CR2 was added to the C3d samples in lane 2, 6 and 10, or in lanes 4, 8 and 12. […] The same conclusion can be drawn by comparing the intensity of the bands of the complexes containing the wt, mt115 and mt170. FIG. 4B is a graphical representation showing the intensity changes of the complex bands (measured by densitometry) as CR2 concentration increases from lanes 2 to 4 (wt), or lanes 6 to 8 (mt115), or lanes 10 to 12 (mt170).
The result shown in this experiment is consistent with that predicted by the interaction interface seen in the complex structure. […] This is consistent with the complex structure in that all these three residues, even though located within the interface area, have their side chains pointing sideways and are not involved in the direct contact with CR2. The side chain of Glu117, however, participates in the Zn coordination. […] The coordinated Zn in the structure, therefore, could simply come from the crystallization buffer which contained ZnAcetate.

“mt115: C3d mutant Gln105Ala, Leu116Ala, Glu117Ala” was tested, and the “interaction with CR2 (shift of C3d band to the complex form)” value was “completely shifted to the complex form; also recorded: no obvious effect on CR2 binding”.

For “mt170: C3d mutant, residue Asn170 changed to Arg (SEQ ID NO:8)”, the “interaction with CR2 (shift of C3d band to the complex form)” value was “clearly less strong; also recorded: still contains an obvious C3d band” and the “apparent affinity for CR2 from intensity of the complex bands (densitometry)” value (as CR2 concentration increases, FIG. 4B) was “less apparent affinity for CR2 than wt and mt115”.

“wt: wild type human C3d (SEQ ID NO:7), CR2 ligand [reference compound]” was tested, and the “interaction with CR2 (shift of C3d band to the complex form)” value was “completely shifted to the complex form”.
